Data on 2 substances can be found in patent US20150119341A1.

Usually Ki stands for the equilibrium dissociation constant of an inhibitor or competing ligand from its target.

[ ]: non-standard residue; d: D form. Nle = CCCC[C@H](N)C(=O)O

Experiment [1] concerns the target recombinant human melanocortin-1 receptor (hMCR-1a) in membrane homogenates of HEK-293 cells (human) (UniProt Q01726). Put plainly: competitive inhibition of [I125]-NDP-alpha-MSH, hMCR-1 HEK-293 membranes.
For experiment [2], the target named is recombinant human melanocortin-4 receptor (hMCR-4) in membrane homogenates of HEK-293 cells (human) (UniProt P32245). Put plainly: competitive inhibition of [I125]-NDP-alpha-MSH, hMCR-4 HEK-293 membranes.
recombinant human melanocortin-4 receptor (hMCR-4) in membrane homogenates of HEK-293 cells (human), sequence (P32245 whole entry): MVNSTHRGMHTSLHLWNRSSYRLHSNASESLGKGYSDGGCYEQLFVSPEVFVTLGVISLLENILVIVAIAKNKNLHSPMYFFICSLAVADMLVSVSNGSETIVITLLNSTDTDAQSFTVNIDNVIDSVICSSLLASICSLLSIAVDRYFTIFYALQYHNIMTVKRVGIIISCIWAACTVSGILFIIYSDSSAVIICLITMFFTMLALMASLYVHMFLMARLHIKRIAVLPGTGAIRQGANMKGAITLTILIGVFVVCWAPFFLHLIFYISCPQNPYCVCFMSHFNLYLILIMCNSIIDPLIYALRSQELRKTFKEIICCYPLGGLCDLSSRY

recombinant human melanocortin-1 receptor (hMCR-1a) in membrane homogenates of HEK-293 cells (human), sequence (Q01726 whole entry): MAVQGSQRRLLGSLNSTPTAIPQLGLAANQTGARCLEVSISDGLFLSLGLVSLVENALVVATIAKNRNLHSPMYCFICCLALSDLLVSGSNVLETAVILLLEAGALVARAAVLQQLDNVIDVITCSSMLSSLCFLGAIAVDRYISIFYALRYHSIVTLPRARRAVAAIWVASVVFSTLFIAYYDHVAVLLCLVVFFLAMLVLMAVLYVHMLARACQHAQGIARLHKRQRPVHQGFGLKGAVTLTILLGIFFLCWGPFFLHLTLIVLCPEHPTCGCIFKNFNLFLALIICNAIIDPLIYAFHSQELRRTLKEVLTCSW

As to Ac-[Nle]AH[dF]R[dP][dW]-NH2, the Ki stood at 0.02 µM in experiment [1] and 10 µM in experiment [2].

In the case of Ac-[Nle][dF]RAW-NH2, the Ki in experiment [1] was determined as 1.29 µM; in experiment [2] it was 7.12 µM.
